These results are taken from US20060039904A1 (AstraZeneca / MedImmune, published 2006).

For test [1], the target named is T1, FcγRIIIA (soluble receptor used as analyte in the BIAcore runs) (human, UniProt P08637 17-208). The experiment in a line: BIAcore run 2, IgG immobilized, soluble FcγRIIIA, steady-state isotherm.
In test [2] the target is T1, FcγRIIIA (soluble receptor used as …). The experiment in a line: BIAcore run 2, ratio of isotherm KD values against wild type Vitaxin®.
For test [3] the target is unchanged. The experiment in a line: BIAcore run 1, ratio of isotherm KD values against wild type Vitaxin®.
The target is the same in test [4]. The experiment in a line: BIAcore run 1, IgG immobilized, soluble FcγRIIIA, steady-state isotherm.
For test [5] the target is unchanged. The experiment in a line: BIAcore run 2, IgG immobilized, soluble FcγRIIIA, Scatchard plot.
For test [6] the target is unchanged. The experiment in a line: BIAcore run 1, IgG immobilized, soluble FcγRIIIA, Scatchard plot.

T1 sequence (P08637 17-208): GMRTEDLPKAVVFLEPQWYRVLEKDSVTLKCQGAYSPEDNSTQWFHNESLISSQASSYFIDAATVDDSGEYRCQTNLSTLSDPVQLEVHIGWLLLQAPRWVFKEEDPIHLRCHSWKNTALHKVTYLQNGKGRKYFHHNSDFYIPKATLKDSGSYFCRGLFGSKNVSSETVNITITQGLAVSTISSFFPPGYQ

B1: Vitaxin®-1M (Vitaxin® Fc variant I332E, IgG1) (antibody)
heavy: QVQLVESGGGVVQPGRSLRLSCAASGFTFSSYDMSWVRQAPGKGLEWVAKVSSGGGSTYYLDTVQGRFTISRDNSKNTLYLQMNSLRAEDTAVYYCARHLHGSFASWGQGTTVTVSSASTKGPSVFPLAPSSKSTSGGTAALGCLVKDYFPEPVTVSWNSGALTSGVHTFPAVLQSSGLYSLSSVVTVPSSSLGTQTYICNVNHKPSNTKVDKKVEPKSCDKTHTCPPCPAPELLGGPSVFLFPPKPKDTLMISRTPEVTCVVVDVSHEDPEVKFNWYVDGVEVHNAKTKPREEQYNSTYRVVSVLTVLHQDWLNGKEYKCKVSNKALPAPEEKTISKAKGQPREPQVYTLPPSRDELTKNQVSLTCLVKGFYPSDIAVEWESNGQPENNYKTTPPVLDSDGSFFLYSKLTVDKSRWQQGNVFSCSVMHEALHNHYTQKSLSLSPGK
VL: EIVLTQSPATLSLSPGERATLSCQASQSISNFLHWYQQRPGQAPRLLIRYRSQSISGIPARFSGSGSGTDFTLTISSLEPEDFAVYYCQQSGSWPLTFGGGTKVEIK
notes: Full length IgG1 with I332E in the Fc; expressed in 293H/HEK293 cells; also called I332E Fc variant; Vitaxin® Fc (I332E) variant
Turning to B1, the Kd in test [1] turned out to be 1280 nM; in test [4], 458 nM; in test [5] it was 1220 nM; in test [6], 458 nM. Further, the “Fold increase over WT” value was 7 fold in test [2] and 6.5 fold in test [3].

B2: Vitaxin®-3M (Vitaxin® Fc variant S239D/A330L/I332E, IgG1) (antibody)
heavy: QVQLVESGGGVVQPGRSLRLSCAASGFTFSSYDMSWVRQAPGKGLEWVAKVSSGGGSTYYLDTVQGRFTISRDNSKNTLYLQMNSLRAEDTAVYYCARHLHGSFASWGQGTTVTVSSASTKGPSVFPLAPSSKSTSGGTAALGCLVKDYFPEPVTVSWNSGALTSGVHTFPAVLQSSGLYSLSSVVTVPSSSLGTQTYICNVNHKPSNTKVDKKVEPKSCDKTHTCPPCPAPELLGGPDVFLFPPKPKDTLMISRTPEVTCVVVDVSHEDPEVKFNWYVDGVEVHNAKTKPREEQYNSTYRVVSVLTVLHQDWLNGKEYKCKVSNKALPLPEEKTISKAKGQPREPQVYTLPPSRDELTKNQVSLTCLVKGFYPSDIAVEWESNGQPENNYKTTPPVLDSDGSFFLYSKLTVDKSRWQQGNVFSCSVMHEALHNHYTQKSLSLSPGK
VL: EIVLTQSPATLSLSPGERATLSCQASQSISNFLHWYQQRPGQAPRLLIRYRSQSISGIPARFSGSGSGTDFTLTISSLEPEDFAVYYCQQSGSWPLTFGGGTKVEIK
notes: I332E is used here; also called Vitaxin S239D/A330L/I332E
In turn, B2 came in with a Kd in test [1] of 114 nM.
